Measurements: patent US9289468B2, “Fusion protein comprising circularly permuted form of trail/Apo2L, coding gene and use thereof” (Beijing Sunbio Biotech Co. Ltd., priority 2011, dated 2016)

Key:
[1] = test system: NCI-H460 cells; test: Internucleosomal DNA fragmentation (agarose gel electrophoresis); format: cell-based, human; conditions: 15 ng/ml, 2 hours
Description: FIG. 5. The agarose gel electrophoresis analysis of internucleosomal DNA fragmentation of NCI-H460 cells after incubated with NCPT-1.M1 for varying time.
Marker: 200 bp-2000 bp DNA markers with 200 bp interval;
Control: solvent control;
2 h, 4 h, 6 h: represent incubation with 15 ng/ml NCPT-1.M1 for 2 h, 4 h, 6 h, respectively.
NCI-H460 cells at logarithmic growth phase were incubated with NCPT-1.M1 (a final concentration of […]) for 2 h, 4 h, 6 h, and the medium control group was not added with NCPT-1.M1. All adherent and floating cells (approximately 5×10^6) were collected, and DNA was extracted (Wen Jinkun, Principles and experimental techniques of medical molecular biology, 236-237 (1999)). DNA sample was removed and mixed with 6× loading buffer, and subjected to 1.8% agarose gel (a final concentration of ethidium bromide of 0.5 μg/ml) electrophoresis. The gel was observed under ultraviolet light source and photographed, and analyzed for DNA fragmentation. […] To the contrary, in the DNA electrophoresis of the medium control group, a band corresponding to a macromolecule is very near to the loading well, and there is no DNA fragmentation ladder. With the increasing incubation time with NCPT-1.M1, the DNA ladder becomes weaker and vague, and is illegible (FIG. 5), which might be due to DNA being degraded into smaller fragments.

[2] = test system: human multiple myeloma cell line U266; test: Combination with melphalan, cell survival (ATPlite); format: cell-based
Description: FIG. 9. […] U266 cells are insensitive to CPT. At the concentration of 1 μg/ml, NCPT-1.M1 alone has a mild killing effect on U266 (<20%), but with the presence of melphalan (12.5˜50 μg/ml), both of them can cause enhanced killing effect. The cell viability was assayed with ATPlite luminescent system (PerkinElmer), the data as shown in this figure are all represented as the mean±standard deviation, n=4, #P<0.05, ##P<0.01 vs. melphalan group; *P<0.05 vs. NCPT-1.M1 group.

B1: NCPT-1.M1: MG+His6+NCPT-1 fusion protein, SEQ ID NO: 5 (protein)
chain: MGHHHHHHTLSSPNSKNEKALGRKINSWESSRSGHSFLSNLHLRNGELVIHEKGFYYIYSQTYFRFQEEIKENTKNDKQMVQYIYKYTSYPDPILLMKSARNSCWSKDAEYGLYSIYQGGIFELKENDRIFVSVTNEHLIDMDHEASFFGAFLVGGGGGGRVAAHITGTRGRSNT
modifications: NCPT-1.M1 polypeptide sequence
[1]
  DNA fragmentation ladder: showed obvious ladder
[2]; 1 μg/ml alone, U266
  killing effect: < 20%
[2]; U266 / U266B1
  sensitivity of the cell line: insensitive
